B1: recombinant Dm-kinase: recombinant multifunctional deoxynucleoside kinase from Drosophila Melanogaster, expressed in E. coli (protein, UniProt Q9XZT6 1-250, looked up)
Deoxynucleoside kinase: MAEAASCARKGTKYAEGTQPFTVLIEGNIGSGKTTYLNHFEKYKNDICLLTEPVEKWRNVNGVNLLELMYKDPKKWAMPFQSYVTLTMLQSHTAPTNKKLKIMERSIFSARYCFVENMRRNGSLEQGMYNTLEEWYKFIEESIHVQADLIIYLRTSPEVAYERIRQRARSEESCVPLKYLQELHELHEDWLIHQRRPQSCKVLVLDADLNLENIGTEYQRSESSIFDAISSNQQPSPVLVSPSKRQRVAR
B2: native Dm-kinase: native, isolated deoxynucleoside kinase from Drosophila Melanogaster, used for comparison (protein, UniProt Q9XZT6 1-250, looked up)
Deoxynucleoside kinase: B1 Deoxynucleoside kinase

Assays:
[1] = Kinetic constants of the Drosophila kinase compared to known analogous enzymes; assay type: biochemical; conditions: versus hitherto known kinases, Kc values
Excerpt: Furthermore, […]; as a consequence, for the synthesis of the individual nucleosides it is no more necessary to have the corresponding specific kinase. Particularly advantageous is the low specificity for the synthesis of modified nucleoside analogues, such as dideoxynucleosides or base- or sugar-modified nucleosides. Base-modified nucleosides are for example 7-deaza-nucleosides, C-nucleosides and nucleotides labelled with reporter groups (dye, digoxigenin, biotin) at the base. Sugar-modified nucleosides are for example azathymidine, arabinosyl-thymidine. The specific activity kc of the kinase according to the invention is several times higher than that of the kinases known before. The activity of the enzyme was measured as described in the reference: Munch-Peterson et al. (1991) J. Biol. Chem. 266, 9032-9038. By this, a considerably lower amount of enzyme is necessary to synthesize the dNMPs. (factor 3.5-14000, cf. Kc values in table 1). The specificity constant (kc/KM) of the kinase according to the invention exceeds that of the hitherto known kinases by several powers and is in the region of the diffusion constant. This leads to the complete yield when the kinase is added to the d-NMP synthesis. They are higher by factor 2-6500 than the hitherto known kinases, s. FIG. 1. […]

[2] = Stability: remaining activity of recombinant versus native Dm-kinase after incubation at 37° C.; assay type: physicochemical
Protocol: The activity of the recombinant Dm-kinase compared to native, isolated Dm-kinase was determined. After different periods of incubation in 50 mM Tris 7.5+2.5 mM MgCl2 at 37° C. the remaining activity was determined.

[3] = Activity of the kinase from D. Melanogaster at different temperatures; assay type: biochemical; conditions: wide optimum
Protocol: The activity of the Dm-nucleoside kinase was determined at different temperatures. […] (see FIG. 6).
The activity test is described in reference No. 14.

| Molecule | factor by which specific activity kc exceeds known kinases (lower amount of enzyme necessary) [1] | stability (remaining activity) ([2]; 50 mM Tris 7.5+2.5 mM MgCl2, 37° C., without addition of BSA) | half-life ([2]; Tris buffer in the presence of MgCl2, 37° C.) [h] | half-life ([2]; Tris buffer without MgCl2, 37° C.) [h] | half-life ([2]; pure water) [h] | temperature of maximum activity [3] [°C] | stability (remaining activity) ([2]; 50 mM Tris 7.5+2.5 mM MgCl2, 37° C., with 2.5 mg/ml BSA) | half-life ([2]; under the same conditions) [h] | remaining activity ([2]; within 50 min, 50 mM Tris 7.5+2.5 mM MgCl2, 37° C., without BSA) [%] |
| --- | --- | --- | --- | --- | --- | --- | --- | --- | --- |
| B1 | 3.5-14000 | remains stable | 50 | 31 | 28 | 60 |  |  |  |
| B2 |  |  |  |  |  |  | remains stable | < 0.2 | < 20 |

Reference: patent publication US7625735B2, “Recombinant kinase from insect cells for the synthesis of nucleoside monophosphates” (Roche Diagnostic Operations, Inc., priority 1998, dated 2009)
